Non-standard residues stand in square brackets, D forms with d. No end group written: not given here. Nle = CCCC[C@H](N)C(=O)O

The experiment has as its target human Asp2 aspartyl protease (Hu-Asp2), recombinant enzyme used in the in vitro cleavage assays (human, UniProt P56817 22-453, limits assumed). Description: cell-based or functional assay.

Chain of human Asp2 aspartyl protease (Hu-Asp2), recombinant enzyme used in the in vitro cleavage assays (P56817 22-453 Q214H limits assumed): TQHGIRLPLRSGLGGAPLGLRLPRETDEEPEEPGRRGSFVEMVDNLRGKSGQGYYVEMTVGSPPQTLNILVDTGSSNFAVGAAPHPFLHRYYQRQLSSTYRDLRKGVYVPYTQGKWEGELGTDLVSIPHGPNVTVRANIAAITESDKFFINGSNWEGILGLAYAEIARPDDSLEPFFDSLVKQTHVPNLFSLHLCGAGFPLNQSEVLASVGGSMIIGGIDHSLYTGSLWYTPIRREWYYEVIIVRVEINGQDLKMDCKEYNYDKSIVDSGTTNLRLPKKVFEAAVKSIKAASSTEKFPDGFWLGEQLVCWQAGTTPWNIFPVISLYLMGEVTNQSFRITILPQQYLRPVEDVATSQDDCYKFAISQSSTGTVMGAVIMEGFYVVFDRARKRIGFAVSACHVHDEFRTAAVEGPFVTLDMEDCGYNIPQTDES

With KTIN[Nle]DVDPS [KTINnle-DVDPS], the “activity against peptide #3 (SEQ ID NO:134)” value is approximately 10 fold lower.

Turning to SEVNYEVEFR [SEVNY-EVEFR], the “activity against SEVSY-EVEFR (SEQ ID NO:141), peptide activity assay” value was 0.2 ratio.

The values are drawn from patent publication US20030017991A1 (PHARMACIA AND UPJOHN COMPANY A DELAWARE, published 2003).
